Results as given in the supplement of paper PMC10567573.

B1: CHIT1 (parent)
chain: CSWKGATKQRIQDQKVPYIFRDNQ

Variants of: B1
Test: protein stability index of a GFP-peptide fusion (GPS, HEK-293T) (PSI 1-6); higher = more stable
Conditions: c terminus: a fixed tail appended
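Note: lentivirally expressed fusions sorted by FACS into six bins by GFP to DsRed ratio, PSI derived from sequencing read proportions per bin multiplied by bin number.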

Variant	protein stability index
CSWKGATKQRIQDQMVPYIFRDNQ	2.28
CSWKGATKQRIQDQNVPYIFRDNQ	2.75
CSWKGATKQRIQDQPVPYIFRDNQ	3.22
CSWKGATKQRIQDQQVPYIFRDNQ	2.19
CSWKGATKQRIQDQRVPYIFRDNQ	2.31
CSWKGATKQRIQDQSVPYIFRDNQ	2.29
CSWKGATKQRIQDQTVPYIFRDNQ	2.48
CSWKGATKQRIQDQVVPYIFRDNQ	1.39
CSWKGATKQRIQDQYVPYIFRDNQ	3.73
CSWKGATKQRIQDQKCPYIFRDNQ	3.13
CSWKGATKQRIQDQKDPYIFRDNQ	2.86
CSWKGATKQRIQDQKEPYIFRDNQ	2.85
CSWKGATKQRIQDQKFPYIFRDNQ	2.32
CSWKGATKQRIQDQKGPYIFRDNQ	2.73
CSWKGATKQRIQDQKHPYIFRDNQ	2.27
CSWKGATKQRIQDQKIPYIFRDNQ	2.5
CSWKGATKQRIQDQKKPYIFRDNQ	3.11
CSWKGATKQRIQDQKLPYIFRDNQ	2.55
CSWKGATKQRIQDQKMPYIFRDNQ	2.28
CSWKGATKQRIQDQKNPYIFRDNQ	2.82
CSWKGATKQRIQDQKPPYIFRDNQ	3.31
CSWKGATKQRIQDQKQPYIFRDNQ	3.07
CSWKGATKQRIQDQKRPYIFRDNQ	2.31
CSWKGATKQRIQDQKSPYIFRDNQ	2.11

Variant	protein stability index
CSWKGATKQRIQDQKTPYIFRDNQ	2.37
CSWKGATKQRIQDQKWPYIFRDNQ	2.04
CSWKGATKQRIQDQKYPYIFRDNQ	1.95
CSWKGATKQRIQDQKVAYIFRDNQ	2.64
CSWKGATKQRIQDQKVCYIFRDNQ	2.75
CSWKGATKQRIQDQKVDYIFRDNQ	3.36
CSWKGATKQRIQDQKVEYIFRDNQ	2.3
CSWKGATKQRIQDQKVFYIFRDNQ	1.54
CSWKGATKQRIQDQKVGYIFRDNQ	2.45
CSWKGATKQRIQDQKVHYIFRDNQ	2.4
CSWKGATKQRIQDQKVIYIFRDNQ	1.61
CSWKGATKQRIQDQKVKYIFRDNQ	2.8
CSWKGATKQRIQDQKVLYIFRDNQ	1.33
CSWKGATKQRIQDQKVMYIFRDNQ	1.37
CSWKGATKQRIQDQKVNYIFRDNQ	2.51
CSWKGATKQRIQDQKVQYIFRDNQ	1.98
CSWKGATKQRIQDQKVRYIFRDNQ	2.67
CSWKGATKQRIQDQKVSYIFRDNQ	1.81
CSWKGATKQRIQDQKVTYIFRDNQ	2.57
CSWKGATKQRIQDQKVWYIFRDNQ	2.04
CSWKGATKQRIQDQKVYYIFRDNQ	1.75
CSWKGATKQRIQDQKVPAIFRDNQ	2.88
CSWKGATKQRIQDQKVPCIFRDNQ	2.7
